Data set [1] deals with T1, D-amino acid oxidase (DAO; DDB0238432 protein) (Dictyostelium discoideum, UniProt Q556W1).
T1 construct: gene ddo-1; cDNA from EST clone in pET15b, N-terminal 6-His tag, expressed in E. coli Rosetta (DE3), Ni-NTA purified
As to the kind of experiment: UV-visible spectrum of purified enzyme. The class given is binding. Particulars: oxidized flavin, maxima around 360 and 450 nm; FAD in storage buffer.

Substrate in data set [2]: N[C@H](CO)C(=O)O
Nature of the data set: purified protein. Particulars: oxidative deamination, 50 mM Tris-HCl pH 8.5, 20 μM FAD.

Substrate in data set [3]: C[C@@H](N)C(=O)O
As to the kind of experiment: purified protein. Particulars: oxidative deamination, 50 mM Tris-HCl pH 8.5, 20 μM FAD.

Turning to `Cc1cc2nc3c(=O)[nH]c(=O)nc-3n(C[C@H](O)[C@H](O)[C@H](O)COP(=O)(O)OP(=O)(O)OC[C@H]3O[C@@H](n4cnc5c(N)ncnc54)[C@H](O)[C@@H]3O)c2cc1C` [FAD], in data set [1], the “UV-visible spectrum of purified enzyme” value is “indicating that it possesses an oxidized form of the flavin cofactor”.

B1: D-amino acid oxidase (DAO; DDB0238432 protein) (Dictyostelium discoideum) (protein)
chain: MNQNKNNNNKNPKINLLIIGCGCIGLSTGIIALKSGNYKSVSIWAKDLPPNTTSNKAAALWYPFLCNPLDLVGKWSAETMQYYKDHIINDPKSGTITKKVNEIFRRPHPEDPEWKPYIKSFRRARKDELPDGYVDGYAIDDGFVMDTDMYMDYLVDQFKSLGGIIEQRHLVDIREAFVDHDVVVNCTGLGSRELFNDRTIYPGRGQIIVIKNSTDRSIMDEEDHIAYVIPRLTNTVLGGTNQEHDYNTNPTKKDTEEILKRVAMISPRFAKNRIEIQGVKVGLRPARHEIRLENEFFEGGSKLVVHNYGHGGSGFTVSWGCAIEAIKLVDQGLPKLLHFNKLISKL
Take B1: in data set [2], the Km (in general, the substrate concentration at which the rate is half of its maximum) was determined as 6.1 ± 0.78 mM; the turnover number (kcat) (as a rule, the maximal rate divided by the concentration of active sites) stood at 0.05 s⁻¹; the kcat/Km (as a rule, the turnover number divided by the Michaelis constant) is 10 M⁻¹ s⁻¹. Also, in data set [3], the Km stood at 0.78 ± 0.05 mM, the kcat worked out at 0.53 s⁻¹ and the kcat/Km came out at 680 M⁻¹ s⁻¹.
